Experiment: yeast display, Sf9 membrane polyspecificity reagent, FACS + sequencing; frameworks hold sequencing errors
Summary of the method: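 Galactose induction of a Saccharomyces cerevisiae BJ5465 synthetic nanobody display library ran 36–48 hours. The cells were then stained for 1 hour at 4 °C with 10% biotinylated, detergent-solubilized Sf9 membrane reagent, pulled down on streptavidin microbeads and FACS-sorted into low and high (top ~1%) gates on expression and reagent-binding fluorescence. Labels for polyreactivity follow the gate of origin.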

Row | Sequence | polyreactivity (PSR sort gate)
1 | QLQLVESGGGLVQAGGSLSLSCAASGRIFYVYAMGWYRQAPGKEREFVAAITRRSGSTYYADSVKGRFTISRDNAKNTVYFQMNSLKPEDTSVYYCNARLKYAIPQVPPYDYWGQGTQVTVSS | high polyreactivity
2 | QVQLVESGGGLVQAGGSLRLSCAPSGSISFSNALGWYRQAPGKERELVASITSGGSTKYADSVKGRFTFSRDNAKNTVYLQMNSLQPEDTAVYYCNADSPESVYDEYDYWGQGTQVTVSS | low polyreactivity
3 | QVQLVESGGGLVQAGGSLRLSCAASGNTYPVYAMGWYRHASGQERELDATITSGGSTNYADSVKGRFTLSRDNAKTSVYYQMNSLSPEDTAVYYCARRAVYSKRRYDYWGQGTQVTVSS | low polyreactivity
4 | QVQLVESGGGLVQAGGSLRLSCAASARIYDLNAMGWYRQAPGKERELVAAITWSGDSTYYADSVKGRFTISRDTAKNTVYLQMNSLKPEDTAVYYCAAASRTSYSWVDYEFDYWGQGTQVTVSS | low polyreactivity
5 | QVQIVESGGGLVQAGGSHRLSCAASGSTFASNTKGWYTQAPGKERELVATITQSGGTRYYADSVKGRFTISRDNAKYTVYFQMNSLKPEDTAVYDCATDVGYFYTVVGGYDYWGQGTQVTVSA | low polyreactivity
6 | QVQLVESGGGLVQAGGSLRLSCAASGGIFNSNAMGWYRQAPGKEREFVAAITRSGTSTYYADSVKGRFTISRDNAKNSVYLQMNSLKPEDTAVYYWAADYRYRRYRGHVSNLYYWGQGTQVTVSS | low polyreactivity
7 | QVQLVESGGGLVQAGGSLRLSCAASGLFFSYYAMGWYRQAPGKERELVAAINSGGSTYYADSVKGRFTISRDNAKNTVYLQMNSLKPEDTAVYYCAAHLWYHGHLFDYWGQGTQVTVSS | high polyreactivity
8 | QVQLVESGGGLVQAGGSLRLSCAASGSIFGTNAMGRYRPAPGKERELVAAISWSGTSTYYADSVKGRFTISRDNAKNTVYLQMNSLKPEDTAVYYCAKRSGYSRGFYYWGQGTQVTVSS | high polyreactivity
9 | QVQLVESGGGLVQAGGSLRLSCAASGSTFPANAMGWYRQAPGKERELVATISWSGGRTYYADSVKGRFTISRDNAKNTVYIQMNSLKPEDTAVYYCAAYPLYRRRWTGDYWGQGTQVTVSS | high polyreactivity
10 | QVQLVESGGGLVQAGGSLRLSCAASGRNILVYAMGWYRQAPGKERELVAAISSGGSTYYADSVKGRFTISRDNAKNTVYLQMNSLKPEDTAVYYCAAQFDVYYSRQPYDYNRSGYWGQGTQVTVSS | low polyreactivity
11 | QVQLVESGGGLVQAGGSLRLSCASSGRIFYYNAMGWYRQAPGKERELVAAISKRGGITSYADSVKGRFTISRDNAKNTVYLPMNSLKPEDTAVYYCAADLVPWRGGYYYWGQGTLVTVSS | high polyreactivity
12 | QDQLVESGGGLVQAGGSLRLSCAASGLTLYKNGLGWYRQAHGKEMELVAVISRSGGRTYYADSVKGRFTISRDNAKYTVYLQMNSLKPEDTAVYYCAARQYGPSYTYYYWGQGTQVTVSS | high polyreactivity
13 | QVQLVESGGGLVQAGGSLRLSCADSGSIFYTYAMGWYRQAPGKEREFVAAITQTGGTTYNADSVKGRFTISRDNAKNTVYFQMNSLKQEDTAVYYCAARYRAYKLYGRHYYWGQGTQVTVSS | high polyreactivity
14 | KVQLVESGGGLVQSGGRLRLSCAASGSTFQIYTMGWYRQAPGKERELVAAITNGGGSTYYADSVKGRFTISRDNAKNTVYFQMISLKPEDTAVYYCAAEQSYPLIILYDYWGQGTQVTVSS | low polyreactivity
15 | QVQLVESGGGIVQAGGSLRLSSAATGRIYAKNAMGWYRQAPGKERELVAAINHSVGSTYYADSVKARFTISRDNANNTVYLQMISLIQEDTAVYYCATLQGDSSSQYDYWGQGTQVTVSS | high polyreactivity
16 | QDQLVESGGGLVQAGGSLRLSCAASGRTFDTNAMGWYRQAPGKERELVASISWSTGSTYYADSVKGRFTISRDNAKNTVYLQMNSLKPEDTAVYYCAARKWFRYKGRSRDYWGQGTQVTVSS | high polyreactivity
17 | QVQLQESGGGLVQAGGSLRLSCAASVTISDSGLMGWYRQAPGKERELVAGISSGGITNYADSVKGRFTISRDNAKNTVYLQMNSLKPEVTAVYWGQGTKVTVSS | low polyreactivity
